US20150266962A1 (Pfizer, published 2015)

What was measured:
[1] = target: T1, recombinant human IL-13 receptor alpha 2 (hIL-13-Rα2) (human, UniProt Q14627 27-343); experiment: direct ELISA on coated recombinant hIL-13-Rα2
T1 construct: Recombinant soluble antigen coated on ELISA plates or used in Biacore; also called rec hIL-13Rα2; rhIL-13Rα2
T1 sequence (looked up): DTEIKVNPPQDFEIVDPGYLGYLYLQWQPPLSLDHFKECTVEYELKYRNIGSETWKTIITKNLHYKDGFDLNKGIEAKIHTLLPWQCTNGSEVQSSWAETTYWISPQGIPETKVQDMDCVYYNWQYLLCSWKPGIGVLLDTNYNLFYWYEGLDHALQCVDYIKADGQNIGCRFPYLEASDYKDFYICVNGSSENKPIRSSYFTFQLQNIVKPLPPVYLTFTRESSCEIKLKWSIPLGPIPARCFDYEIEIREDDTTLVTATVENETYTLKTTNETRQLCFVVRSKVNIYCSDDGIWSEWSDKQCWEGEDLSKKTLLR
Procedure: Humanized hu08 binding to recombinant hIL-13-Rα2 was evaluated by a standard direct ELISA. Recombinant hIL-13-Rα2 was coated onto a 96-well plate. Serially diluted chimeric antibodies or humanized antibodies in combinations of heavy and light chains of versions 1.0 and 1.1 e.g. hu08 v1.0 HC/1.0 LC, hu08 v1.0 HC/v1.1 LC, hu08 v1.1 HC/v1.0 LC, and hu08 v1.1 HC/v1.1 LC, were added to the plate and incubated at room temperature for 1-2 hours. The binding was detected by HRP conjugated goat anti-human Ig Kappa.

[2] = target: T1, recombinant human IL-13 receptor alpha …; experiment: SPR Biacore T100, pH 7.4
Procedure: (§1) To assess the binding kinetics of the ch07 and ch08 antibodies, SPR (Surface Plasmon Resonance) experiments were conducted on a Biacore® T100 or T200 instrument using a Biacore® human Fab Capture Kit (GE Healthcare). All data was analyzed using the Biacore® T100 evaluation software version 2.0 with a 1:1 Langmuir binding model.

[3] = target: T2, cynomolgus monkey IL-13-Rα2 ECD/TM domain with C-terminal Flag tag, on transfected HEK293 cells (cynomolgus monkey, UniProt Q14627 27-363 (human entry)); experiment: FACS on HEK293 cells transfected with cyno-IL-13-Rα2 (given as ED50)
T2 construct: also called cyno-IL-13-Rα2; cyno IL-13Rα2; not shown: Flag tag at the C-terminal end
T2 chain: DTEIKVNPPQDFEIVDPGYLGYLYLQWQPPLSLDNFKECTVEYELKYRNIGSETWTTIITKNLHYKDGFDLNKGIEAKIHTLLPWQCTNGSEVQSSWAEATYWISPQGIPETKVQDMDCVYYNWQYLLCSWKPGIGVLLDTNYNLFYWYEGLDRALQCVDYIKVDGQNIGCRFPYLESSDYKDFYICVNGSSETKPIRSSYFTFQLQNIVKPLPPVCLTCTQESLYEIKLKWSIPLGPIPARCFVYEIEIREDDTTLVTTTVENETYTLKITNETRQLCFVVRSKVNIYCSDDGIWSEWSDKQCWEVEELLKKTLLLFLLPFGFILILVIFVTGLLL
Procedure: The ECD/TM domain of cyno IL-13-Rα2 fused with Flag tag at the C-terminal end was cloned into the pSMED2 expression vector. HEK293 suspension cells were transiently transfected with cyno-IL-13-Rα2 containing plasmid and pSMED2 vector (as a mock transfection). The cells were harvested 72 hours later and subjected to FACS analysis. 4 antibodies including ch07, ch08, hu08v1.0/1.0 and hu08v1.1/1.1 were tested. The binding on the cell surface cyno-IL-13-Rα2 was detected with R-Phycoerythrin-labeled goat anti-human or mouse IgG.

[4] = target: T1, recombinant human IL-13 receptor alpha …; experiment: standard ELISA on hIL-13-Rα2 (given as ED50)
[5] = target: T1, recombinant human IL-13 receptor alpha …; experiment: competition ELISA on coated recombinant hIL-13-Rα2, competitor biotin-ch08
Procedure: A competition ELISA was performed to assess whether hu08 1.0 and hu08 v1.1 compete with ch08 for IL-13-Rα2 binding. Recombinant hIL-13-Rα2 was coated onto 96-well plates at 50 ul of […] in PBS overnight at 4° C. Plates were then blocked and washed following standard ELISA protocol. A 3-fold serially diluted ch08, hu08 1.0 and hu08 v1.1, and negative control ch07 (2× final concentration) were mixed with biotinylated ch08 (2×EC₅₀). 50 μl of the antibody and biotin-ch08 mixture were added to the plate and incubated for 1 hour at room temperature. The amount of biotin-ch08 bound was detected by HRP conjugated streptavidin.

[6] = target: T1, recombinant human IL-13 receptor alpha …; experiment: SPR Biacore T100, pH 6.0
Procedure: as §1

[7] = target: T1, recombinant human IL-13 receptor alpha …; experiment: competition ELISA on hIL-13-Rα2, competitor biotinylated ch08
Procedure: The binding properties of the cysteine mutants to hIL-13-Rα2 were evaluated by a standard ELISA and a competition ELISA. […] This conclusion was confirmed by a competition ELISA with biotinylated ch08.

[8] = target: T1, recombinant human IL-13 receptor alpha …; experiment: SPR Biacore T100, pH 7.4 (column head prints nM; kd/ka gives M); pH 7.4
Procedure: as §1

B1: humanized antibody hu08 v1.0 HC/v1.0 LC (antibody, IgG1)
heavy: not shown
light: DIQMTQSPSSLSASVGDRVTITCKASQDVGTAVAWYQQKPGKAPKLLIYSASYRSTGVPSRFSGSGSGTDFTLTISSLQPEDFATYYCQHHYSAPWTFGGGTKVEIKRTVAAPSVFIFPPSDEQLKSGTASVVCLLNNFYPREAKVQWKVDNALQSGNSQESVTEQDSKDSTYSLSSTLTLSKADYEKHKVYACEVTHQGLSSPVTKSFNRGEC
notes: Humanized IgG1/kappa; also called hu08 v1.0/1.0; hu08v1.0/1.0
EC50 [1]: 0.175 nM | koff [2]: 0.000246 s⁻¹ | kon [2]: 97500 M⁻¹ s⁻¹ | EC50 [3]: 1.96 nM | EC50 [4]: 0.11 nM | IC50 [5]: 2.12 nM | koff [6]: 0.000234 s⁻¹ | kon [6]: 52900 M⁻¹ s⁻¹ | IC50 [7]: 2.01 nM | Kd [8]: 2.52 nM
